Source: PMC4869175, “Evidence that phytochrome functions as a protein kinase in plant light signalling” (Nature Communications, 2016)
Where a chain is given by its changes, count along the chain named.

What was measured:
[1] = target: T1, AsphyA T418D, full length (Avena sativa, UniProt P06593 1-1129, T418D, phycocyanobilin chromophore assembled); assay: pull-down; GST/strep-fused interacting protein (1.0 μg) held on glutathione resin, phytochrome (1.0 μg) in solution, Pr and Pfr forms both tested; 60 min at 4 °C in pull-down buffer (100 mM Tris-HCl pH 7.8, 1 mM EDTA, 150 mM NaCl, 100 μg/ml BSA); western blot with oat22 and anti-GST; conditions: both partners purified
T1 construct: Avena sativa phytochrome A, full length, with T418D; source: phycocyanobilin added in vitro
T1 sequence (looked up): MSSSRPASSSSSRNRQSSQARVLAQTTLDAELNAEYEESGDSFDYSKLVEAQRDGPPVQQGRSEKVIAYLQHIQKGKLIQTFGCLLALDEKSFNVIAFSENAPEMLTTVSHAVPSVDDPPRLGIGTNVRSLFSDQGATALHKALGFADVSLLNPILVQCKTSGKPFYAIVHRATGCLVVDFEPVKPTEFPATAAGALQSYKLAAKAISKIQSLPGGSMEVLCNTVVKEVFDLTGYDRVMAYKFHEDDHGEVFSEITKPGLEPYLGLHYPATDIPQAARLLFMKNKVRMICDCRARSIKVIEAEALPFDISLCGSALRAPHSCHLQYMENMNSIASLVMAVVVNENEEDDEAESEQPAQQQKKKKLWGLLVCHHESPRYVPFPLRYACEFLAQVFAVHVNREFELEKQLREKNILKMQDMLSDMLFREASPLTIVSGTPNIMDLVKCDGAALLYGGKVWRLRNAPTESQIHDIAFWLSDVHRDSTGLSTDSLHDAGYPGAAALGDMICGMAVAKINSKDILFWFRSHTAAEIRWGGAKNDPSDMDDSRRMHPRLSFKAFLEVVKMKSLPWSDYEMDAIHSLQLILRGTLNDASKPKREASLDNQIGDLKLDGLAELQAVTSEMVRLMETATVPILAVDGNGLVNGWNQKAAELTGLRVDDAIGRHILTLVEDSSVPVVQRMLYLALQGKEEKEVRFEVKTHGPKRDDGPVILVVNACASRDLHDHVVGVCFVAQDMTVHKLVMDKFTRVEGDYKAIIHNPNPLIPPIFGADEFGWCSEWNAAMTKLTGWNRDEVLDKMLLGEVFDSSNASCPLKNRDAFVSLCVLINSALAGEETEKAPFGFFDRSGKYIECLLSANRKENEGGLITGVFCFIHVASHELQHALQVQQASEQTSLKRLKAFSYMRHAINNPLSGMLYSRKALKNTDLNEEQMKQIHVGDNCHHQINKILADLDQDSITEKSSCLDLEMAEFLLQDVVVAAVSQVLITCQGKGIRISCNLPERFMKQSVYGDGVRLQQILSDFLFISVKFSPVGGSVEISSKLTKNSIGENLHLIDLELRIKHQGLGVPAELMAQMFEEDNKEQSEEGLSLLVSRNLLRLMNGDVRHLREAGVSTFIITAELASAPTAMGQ

[2] = target: T2, AsphyA D422R, full length (Avena sativa, UniProt P06593 1-1129, D422R, phycocyanobilin chromophore assembled); assay: as above; conditions: both partners purified
T2 construct: Avena sativa phytochrome A, full length, with D422R; source: phycocyanobilin added in vitro
T2 sequence (looked up): T1 sequence (looked up) with D418T, D422R

B1: GST/strep-fused FHL (natural protein, UniProt A8MR65 1-201, looked up)
chain: MDDADKSCSPSLDHSDINDPMIVAVESLDTSKKRKLHAEESDLLPLPKHFCSEHQASLVNSSCPSSVIDYAECSYAMENTKTSDEASSSASFTGPSLYMFKDSIYSTGSSSSGYAATSSIEQCFSKVDHKTQEDTQDFTHMEFIYHDSEFAVEDLQEVLNPVESYILSSARWSVSNQDSKEATTKPTIDQEFEQYFSTLMM
notes: FHL, which with FHY1 takes part in the nuclear localization of phyA; not shown: GST, N-terminal, kept
- binding result [1]: binds
- binding result [2]: binds

B2: GST/strep-fused PIF3 (natural protein, UniProt O80536 1-524, looked up)
chain: MPLFELFRLTKAKLESAQDRNPSPPVDEVVELVWENGQISTQSQSSRSRNIPPPQANSSRAREIGNGSKTTMVDEIPMSVPSLMTGLSQDDDFVPWLNHHPSLDGYCSDFLRDVSSPVTVNEQESDMAVNQTAFPLFQRRKDGNESAPAASSSQYNGFQSHSLYGSDRARDLPSQQTNPDRFTQTQEPLITSNKPSLVNFSHFLRPATFAKTTNNNLHDTKEKSPQSPPNVFQTRVLGAKDSEDKVLNESVASATPKDNQKACLISEDSCRKDQESEKAVVCSSVGSGNSLDGPSESPSLSLKRKHSNIQDIDCHSEDVEEESGDGRKEAGPSRTGLGSKRSRSAEVHNLSERRRRDRINEKMRALQELIPNCNKVDKASMLDEAIEYLKSLQLQVQIMSMASGYYLPPAVMFPPGMGHYPAAAAAMAMGMGMPYAMGLPDLSRGGSSVNHGPQFQVSGMQQQPVAMGIPRVSGGGIFAGSSTIGNGSTRDLSGSKDQTTTNNNSNLKPIKRKQGSSDQFCGSS
notes: Probably Arabidopsis PIF3, as PIF1 and PIF4 are called Arabidopsis; not shown: GST, N-terminal, kept
- binding result [1]: binds
- binding result [2]: binds

B3: GST/strep-fused FHY1 (far-red elongated hypocotyl 1) (natural protein, UniProt Q8S4Q6 1-202, looked up)
chain: MPEVEVDNNNEKPSEINSFHHMIISSSKNVLKMEEVEVSKKRKFQTDQSDELSLLPLSKHTCFANVACSENTNGNSEIDTEYSMSSYVNSTTSMECNNDIEMKEESSGSCGEDKMISFESHLDYIYGTQNLEDFSEKVIENILYLDEQEEEEEDAKGCSSNAAKFVLSSGRWTVNQDDSTLHETKKPTIDQEFEQYFSTLML
notes: FHY1 (far-red elongated hypocotyl 1); not shown: GST, N-terminal, kept
- binding result [1]: binds
- binding result [2]: binds
